B1: EBOV NP residues 1–457 (NPNTD) (domain or fragment)
chain: MDSRPQKIWMAPSLTESDMDYHKILTAGLSVQQGIVRQRVIPVYQVNNLEEICQLIIQAFEAGVDFQESADSFLLMLCLHHAYQGDYKLFLESGAVKYLEGHGFRFEVKKRDGVKRLEELLPAVSSGKNIKRTLAAMPEEETTEANAGQFLSFASLFLPKLVVGEKACLEKVQRQIQVHAEQGLIQYPTAWQSVGHMMVIFRLMRTNFLIKFLLIHQGMHMVAGHDANDAVISNSVAQARFSGLLIVKTVLDHILQKTERGVRLHPLARTAKVKNEVNSFKAALSSLAKHGEYAPFARLLNLSGVNNLEHGLFPQLSAIALGVATAHGSTLAGVNVGEQYQQLREAATEAEKQLQQYAESRELDHLGLDDQEKKILMNFHQKKNEISFQQTNAMVTLRKERLAKLTEAITAASLPKTSGHYDDDDDIPFPGPINDDDNPGHQDDDPTDSQDTTIPDV

Legend:
[1] = test system: ΔNPNTD (NP 25-457) (Zaire ebolavirus (EBOV)); assay: filter binding
[2] = target: the molecule itself; assay: SEC

Molecule | Kd [1] | binding result [2]
20 nt ssRNA | 0.62 µM | 
B1 |  | binds
